Reference: patent publication US20160347802A1 (MAX PLANCK GESELLSCHAFT ZUR FOERDERUNG DER WISSENSCHAFTEN E …, published 2016)

B1: human DRAXIN 21 amino acid Netrin binding fragment, AVEXIS prey or bait protein (peptide)
peptide: EVMPTLDMALFDWTDYEDLKP
notes: Tested in both bait and prey orientations; also called human 21 amino acid DRAXIN fragment; derived 21 amino acid peptide; not shown: AVEXIS tag (rat Cd4d3+4 and prey or bait module)
B2: recombinant human Draxin (R&D systems) (ligand)
chain: GALAPGTPARNLPENHIDLPGPALWTPQASHHRRRGPGKKEWGPGLPSQAQDGAVVTATRQASRLPEAEGLLPEQSPAGLLQDKDLLLGLALPYPEKENRPPGWERTRKRSREHKRRRDRLRLHQGRALVRGPSSLMKKAELSEAQVLDAAMEESSTSLAPTMFFLTTFEAAPATEESLILPVTSLRPQQAQPRSDGEVMPTLDMALFDWTDYEDLKPDGWPSAKKKEKHRGKLSSDGNETSPAEGEPCDHHQDCLPGTCCDLREHLCTPHNRGLNNKCFDDCMCVEGLRCYAKFHRNRRVTRRKGRCVEPETANGDQGSFINV
notes: Bought protein

Assays:
[1] = target: T1, human Netrin-G2, AVEXIS protein (human, UniProt Q96CW9 18-507); assay: AVEXIS, prey on bait NTNG2; white = No binding
T1 construct: not shown: AVEXIS tag (bait or prey)
T1 sequence (looked up): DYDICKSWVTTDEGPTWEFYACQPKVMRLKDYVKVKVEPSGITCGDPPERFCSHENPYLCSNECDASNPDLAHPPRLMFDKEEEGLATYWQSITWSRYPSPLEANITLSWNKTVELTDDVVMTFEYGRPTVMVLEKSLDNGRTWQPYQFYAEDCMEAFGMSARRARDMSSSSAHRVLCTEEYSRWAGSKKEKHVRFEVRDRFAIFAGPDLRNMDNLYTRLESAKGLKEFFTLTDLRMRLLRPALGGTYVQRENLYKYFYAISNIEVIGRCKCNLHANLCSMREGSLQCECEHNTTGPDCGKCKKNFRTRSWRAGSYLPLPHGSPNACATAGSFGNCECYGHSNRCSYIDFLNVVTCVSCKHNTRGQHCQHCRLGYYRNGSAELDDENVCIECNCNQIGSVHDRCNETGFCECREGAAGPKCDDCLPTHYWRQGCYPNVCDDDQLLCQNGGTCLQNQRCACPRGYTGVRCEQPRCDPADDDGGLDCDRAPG
From the text: (§1) The Matn4-bait served as an internal prey-protein control and was used for normalization of the A486 nm values; conditioned medium (CM) serves as negative control; n=3.

[2] = target: T2, human DRAXIN, AVEXIS prey or bait protein (human, UniProt Q8NBI3 26-349); assay: AVEXIS, prey on bait DRAXIN; white = No binding
T2 sequence: B2 chain
From the text: as §1

[3] = target: T3, human Netrin-4, AVEXIS protein (human, UniProt Q9HB63 19-628); assay: AVEXIS, prey NTN4 on bait DRAXIN 21aa
T3 construct: not shown: AVEXIS tag (bait or prey)
T3 sequence (looked up): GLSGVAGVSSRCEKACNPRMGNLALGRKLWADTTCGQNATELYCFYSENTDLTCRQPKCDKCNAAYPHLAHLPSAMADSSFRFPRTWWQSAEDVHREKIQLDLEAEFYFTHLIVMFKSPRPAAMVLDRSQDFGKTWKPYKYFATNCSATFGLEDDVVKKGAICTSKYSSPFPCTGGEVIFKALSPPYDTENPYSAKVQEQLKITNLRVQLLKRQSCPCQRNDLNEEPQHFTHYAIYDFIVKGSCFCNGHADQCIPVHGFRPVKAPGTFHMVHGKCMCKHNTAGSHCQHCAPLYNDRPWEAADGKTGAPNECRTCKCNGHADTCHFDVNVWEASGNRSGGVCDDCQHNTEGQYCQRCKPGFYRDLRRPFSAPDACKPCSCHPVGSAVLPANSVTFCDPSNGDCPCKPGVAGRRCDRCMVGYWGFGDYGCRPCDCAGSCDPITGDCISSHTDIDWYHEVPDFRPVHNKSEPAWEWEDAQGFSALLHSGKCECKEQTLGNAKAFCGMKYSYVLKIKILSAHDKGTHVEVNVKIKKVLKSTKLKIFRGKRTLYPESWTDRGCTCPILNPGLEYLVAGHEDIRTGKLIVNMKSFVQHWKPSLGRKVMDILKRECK
From the text: as §1

[4] = target: T4, biotinylated recombinant human UNC5B (human, UniProt Q8IZJ1 27-377); assay: AVEXIS, prey DRAXIN 21aa on bait UNC5B
T4 construct: Made in HEK293-6E and immobilised on an SA chip
From the text: as §1

[5] = target: T5, human Netrin-G1, AVEXIS protein (human, UniProt Q9Y2I2 29-510); assay: AVEXIS, prey on bait NTNG1; white = No binding
T5 construct: not shown: AVEXIS tag (bait or prey)
T5 sequence (looked up): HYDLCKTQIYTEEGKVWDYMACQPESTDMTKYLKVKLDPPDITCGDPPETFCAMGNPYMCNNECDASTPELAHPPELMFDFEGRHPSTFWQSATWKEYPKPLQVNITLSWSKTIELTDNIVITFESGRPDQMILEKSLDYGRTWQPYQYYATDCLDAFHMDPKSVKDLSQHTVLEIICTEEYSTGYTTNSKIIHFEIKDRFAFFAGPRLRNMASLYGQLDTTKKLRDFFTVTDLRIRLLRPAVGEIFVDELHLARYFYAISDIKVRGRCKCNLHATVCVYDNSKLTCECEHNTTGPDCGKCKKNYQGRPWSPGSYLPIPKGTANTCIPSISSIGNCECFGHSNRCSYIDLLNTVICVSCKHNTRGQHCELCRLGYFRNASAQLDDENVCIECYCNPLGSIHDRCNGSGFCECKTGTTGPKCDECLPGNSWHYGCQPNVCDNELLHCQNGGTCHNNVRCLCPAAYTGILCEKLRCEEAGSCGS
From the text: as §1

[6] = target: T3, human Netrin-4, AVEXIS protein; assay: AVEXIS, prey on bait NTN4; white = No binding
From the text: as §1

[7] = target: T2, human DRAXIN, AVEXIS prey or bait …; assay: AVEXIS, prey DRAXIN on bait DRAXIN 21aa
From the text: as §1

[8] = target: T5, human Netrin-G1, AVEXIS protein; assay: AVEXIS, prey NTNG1 on bait DRAXIN 21aa
From the text: as §1

[9] = target: the molecule itself; assay: AVEXIS, prey on bait DRAXIN 21aa; white = No binding
From the text: as §1

[10] = target: T4, biotinylated recombinant human UNC5B; assay: AVEXIS, prey on bait UNC5B; white = No binding
From the text: as §1

[11] = target: the molecule itself; assay: AVEXIS, prey DRAXIN 21aa on bait DRAXIN 21aa
From the text: as §1

[12] = target: T6, human Netrin1, recombinant AVEXIS protein (biotinylated when immobilised) (human, UniProt O95631 25-604); assay: AVEXIS, prey on bait NTN1; dark = Binding
T6 construct: also called NTN1
From the text: as §1

[13] = target: T1, human Netrin-G2, AVEXIS protein; assay: AVEXIS, prey NTNG2 on bait DRAXIN 21aa
From the text: as §1

[14] = target: T7, Matn4 ECD, mono-biotinylated bait protein (positive control); assay: AVEXIS, prey on bait Matn4 (+), positive control for the prey; dark = Binding
T7 construct: extracellular domain; also called Matn4-bait
From the text: as §1

[15] = target: T4, biotinylated recombinant human UNC5B; assay: SPR, UNC5B immobilised, Draxin injected at 0 to 18.75nM
Method: (§2) Surface Plasmon Resonance (SPR) experiments were performed on a Biacore 3000 (GE Healthcare) at 25° C. using a SA sensor chip in 0.01 M HEPES, pH 7.4, 0.15 M NaCl, 0.005% Surfactant P20 (HBS-P) running buffer at a flow rate of 30 μl/min. The instrument was used according to manufacturer's instructions.

[16] = target: T6, human Netrin1, recombinant AVEXIS …; assay: SPR, Biacore 3000, biotinylated human Netrin1 on SA chip, Draxin injected at 0-18.8 nM
Method: as §2

Binder	A486nm [1]	A486nm [2]	binding result [3]	binding result [4]	A486nm [5]	A486nm [6]	binding result [7]	binding result [8]	A486nm [9]	A486nm [10]	binding result [11]	A486nm [12]	binding result [13]	A486nm [14]	binding result [15]	Kd [16] [nM]
B1	0.062	0.063	no binding	no binding	0.066	0.063	no binding	no binding	0.059	0.062	no binding	0.342	no binding	0.252		
B2															no binding (tested: 18.75 nM)	20 to 100
